Entries after “also recorded” stand apart in the source; their conditions may differ.
How the values were obtained:
granulocytes = assay: Granulocyte reactivity, whole-blood indirect fluorescent flow cytometric analysis; format: binding
Procedure: Hybridoma supernatants were screened for CEA reactive antibody by the ROCHE® ^125I-CEA radioimmunoassay (RIA) in 0.01 and 0.10 M NH4 acetate buffer. Positive clones were recloned. The granulocyte reactivity of CEA-reactive MAb was determined by whole-blood indirect fluorescent flow cytometric analysis (Sharkey et al. Cancer Res., 1990, 50:2823-31). Two MAb with properties similar to those of NP-2 and NP-3, designated MN-2 and MN-6, were selected for additional development.
Immunoreactivity with blood lymphocytes was determined by live-cell indirect immunofluorescence, with the use of the whole blood staining method developed for use with the ORTHO SPECTRUM® I11 flow cytometer (Ortho Diagnostic Systems, Inc., Raritan, N.J.). Tissue reactivity of the MAb was determined by immunohistologic examination performed on frozen sections and 5-μm sections cut from tissue embedded in Paraplast-II. Indirect immunofluorescence on frozen sections was performed as previously described, with MAb concentrations of 20 μg/ml (Pawlak-Byczkowska et al., Cancer Res 1989, 49:4568-77).

[1] = tested on: MDA-468 adhesion to fibronectin; assay: Adhesion to extracellular matrix proteins assay, MDA-468; format: cell-based, human
Procedure: (§1) Adhesion to extracellular matrix proteins assay—The assay was done using the CYTOMATRIX™ screening kit from CHEMICON® (Kit #ECM205, Temecula, Calif.). The kit contains 96-well plates with strips coated with fibronectin, vitronectin, laminin, collagen-I, or collagen-IV. Subconfluent cell cultures were used for these studies. Cells (1×10^6 cells/mol) were seeded onto coated substrate and incubated at 37° C. for 1 hour in a CO2 incubator in PBS containing Ca^2+/Mg^2+ (200 μL per well). Adherent cells were fixed and stained. The plate was washed to remove unadhered cells and stained with 100 μL per well of MTS (Cell Titer Aq 96, PROMEGA®, Madison, Wis.) for 5 minutes at room temperature. Excess stain was removed with three PBS washes. Solubilization buffer [100 μL of a 50:50 mixture of 0.1 mol/L NaH2PO4 (pH 4.5) and 50% ethanol] was added to each well. Relative attachment was determined using absorbance readings (A540 nm-A570 nm).

[2] = tested on: ZR75-30 binding to fibronectin; assay: Adhesion to extracellular matrix proteins assay, ZR75-30; format: cell-based, human
Procedure: as §1

[3] = tested on: Moser binding to fibronectin; assay: Adhesion to extracellular matrix proteins assay, Moser; format: cell-based, human
Procedure: as §1

CEA (HeLa-CEA2) = target: T1, CEA (HeLa-CEA2) (Homo sapiens, UniProt P06731); assay: Indirect flow cytometry, HeLa-CEA2; format: binding; settings: antibodies at 1/50 dilution of 1 mg/ml stocks
T1 construct: expressed in transfected cells; host or cells: HeLa (HeLa-CEA2)
T1 sequence (P06731 35-676): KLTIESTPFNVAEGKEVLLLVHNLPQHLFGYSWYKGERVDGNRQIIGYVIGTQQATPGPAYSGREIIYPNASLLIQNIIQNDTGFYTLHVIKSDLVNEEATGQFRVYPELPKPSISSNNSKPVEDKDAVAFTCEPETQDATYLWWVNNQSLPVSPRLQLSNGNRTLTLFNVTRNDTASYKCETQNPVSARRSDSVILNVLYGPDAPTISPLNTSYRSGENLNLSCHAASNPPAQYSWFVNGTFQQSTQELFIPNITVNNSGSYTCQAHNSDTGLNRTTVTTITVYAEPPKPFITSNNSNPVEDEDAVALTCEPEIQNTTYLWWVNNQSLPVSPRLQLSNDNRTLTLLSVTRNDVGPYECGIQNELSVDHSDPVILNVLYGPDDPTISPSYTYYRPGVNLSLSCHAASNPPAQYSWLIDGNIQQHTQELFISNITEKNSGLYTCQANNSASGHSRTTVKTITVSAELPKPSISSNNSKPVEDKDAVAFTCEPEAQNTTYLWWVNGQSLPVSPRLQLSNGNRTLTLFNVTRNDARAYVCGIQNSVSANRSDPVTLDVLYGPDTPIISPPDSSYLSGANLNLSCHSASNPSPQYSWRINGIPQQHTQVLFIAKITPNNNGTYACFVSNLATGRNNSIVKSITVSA
Procedure: (§2) The reactivity of antibodies was tested by flow cytometry with a Becton-Dickinson FACSCAN®. The biotinylated second antibody was directed against mouse IgG and was detected by a streptavidin/phycoerythrin conjugate. Tests were carried out with antibodies at 1/50 dilution of 1 mg/ml stocks.
(§3) The antibodies MN-3 and MN-15 were tested for recognition of HeLa cells transfected with cDNA coding for CEA (HeLa-CEA2), NCA-90 (HeLa-KNC6/S44) and NCA-95 (HeLa-CGM6/1). As a negative control, HeLa cells transfected with the plasmid pSV2-Neo (control HeLa cells, HeLa-NeoA) were used. In addition to the antibodies MN-3 and MN-15, three control antibodies were included: […]

NCA-90 (HeLa-KNC6/S44) = target: T2, NCA-90 (HeLa-KNC6/S44) (Homo sapiens, UniProt P40199); assay: Indirect flow cytometry, HeLa-KNC6/S44; format: binding; settings: antibodies at 1/50 dilution of 1 mg/ml stocks
T2 construct: expressed in transfected cells; host or cells: HeLa (HeLa-KNC6/S44)
T2 sequence (P40199 35-320): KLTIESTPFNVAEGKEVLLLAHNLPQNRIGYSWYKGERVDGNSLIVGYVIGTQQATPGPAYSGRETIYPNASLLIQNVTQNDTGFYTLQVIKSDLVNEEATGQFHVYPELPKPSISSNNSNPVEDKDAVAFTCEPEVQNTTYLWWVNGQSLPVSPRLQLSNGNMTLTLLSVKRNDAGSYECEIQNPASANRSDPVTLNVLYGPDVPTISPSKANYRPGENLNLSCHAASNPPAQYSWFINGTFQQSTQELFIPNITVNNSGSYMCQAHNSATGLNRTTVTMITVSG
Procedure: as §2, §3

NCA-95 (HeLa-CGM6/1) = target: T3, NCA-95 (HeLa-CGM6/1) (Homo sapiens, UniProt P31997); assay: Indirect flow cytometry, HeLa-CGM6/1; format: binding; settings: antibodies at 1/50 dilution of 1 mg/ml stocks
T3 construct: expressed in transfected cells; host or cells: HeLa (HeLa-CGM6/1)
T3 sequence (P31997 35-320): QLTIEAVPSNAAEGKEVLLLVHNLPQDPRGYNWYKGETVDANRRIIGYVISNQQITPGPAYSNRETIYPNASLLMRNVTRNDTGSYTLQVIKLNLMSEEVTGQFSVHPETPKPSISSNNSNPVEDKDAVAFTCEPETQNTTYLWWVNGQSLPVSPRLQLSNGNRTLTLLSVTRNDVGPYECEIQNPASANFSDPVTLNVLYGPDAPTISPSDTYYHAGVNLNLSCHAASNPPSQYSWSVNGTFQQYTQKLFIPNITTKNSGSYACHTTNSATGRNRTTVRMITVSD
Procedure: as §2, §3

B1: MN-15: murine Class I anti-CEA MAb, IgG1 kappa, binds A1B1 domain of CEACAM5 and CEACAM6 (antibody, V domains shown)
VL: DIQLTQSPAIMSASPGEKVTMTCSASSRVSYIHWYQQKSGTSPKRWIYGTSTLASGVPARFSGSGSGTSYSLTISSMEAEDAATYYCQQWSYNPPTFGAGTKLELKR
VH: EVRLVESGGGLVQGPGSLRLSCAASGFALTDYYMSWVRQSPGKTLEWLGFIANKANGHTTDYSPSVKGRFTISRDNSQTILYLQMNTLRTEDSATYYCARDMGIRWNFDVWGQGTTVTVSS
granulocyte reactivity (granulocytes): granulocyte-reactive; also recorded: high granulocyte reactivity; also recorded: reacted strongly with granulocytes | decrease of adhesion to fibronectin [1]: 51% | effect on binding to fibronectin [2]: not affecting the binding | effect on binding to fibronectin [3]: not affecting the binding | binding to CEA (CEA (HeLa-CEA2)): binds to all three antigens | binding to NCA-90 (NCA-90 (HeLa-KNC6/S44)): binds to all three antigens | binding to NCA-95 (NCA-95 (HeLa-CGM6/1)): binds to all three antigens

Reference: patent publication US9371393B2, “Class I anti-CEA antibodies and uses thereof” (Immunomedics, Inc., priority 2009, dated 2016)
